From the supplement of paper PMC11316812
± gives the standard deviation of the averaged measurements.

How the values were obtained:
hTERT-HMEC = test: percentage of EdU-negative (G0-arrested) nuclei per well, 72 h; higher = more G0 arrest; conditions: reference: sequence is the full UniProt precursor, the tested protein was the secreted form or ectodomain
MCF7 = test: as above; conditions: reference: sequence is the full UniProt precursor, the tested protein was the secreted form or ectodomain
[1] = protein concentration 0.024875 µM
[2] = protein concentration 0.24875 µM
[3] = protein concentration 0.0225 µM
[4] = protein concentration 0.0357143 µM
[5] = protein concentration 0.357143 µM
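Also: secreted proteins added to cultured cells, EdU pulse at the end, nuclei found by Hoechst imaging, EdU status from nuclear versus surrounding ring intensity ratio, PBS as neutral control.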

Sequence	percentage of EdU-negative (hTERT-HMEC; [3])	percentage of EdU-negative (hTERT-HMEC; protein concentration 0.225 µM)	percentage of EdU-negative (MCF7; [3])	percentage of EdU-negative (MCF7; protein concentration 0.225 µM)	further results
MCRIAGALRTLLPLLAALLQASVEASGEIALCKTGFPEDVYSAVLSKDVHEGQPLLNVKFSNCNGKRKVQYESSEPADFKVDEDGMVYAVRSFPLSSEHAKFLIYAQDKETQEKWQVAVKLSLKPTLTEESVKESAEVEEIVFPRQFSKHSGHLQRQKRDWVIPPINLPENSRGPFPQELVRIRSDRDKNLSLRYSVTGPGADQPPTGIFIINPISGQLSVTKPLDREQIARFHLRAHAVDINGNQVENPIDIVINVIDMNDNRPEFLHQVWNGTVPEGSKPGTYVMTVTAIDADDPNALNGMLRYRIVSQAPSTPSPNMFTINNETGDIITVAAGLDREKVQQYTLIIQATDMEGNPTYGLSNTATAVITVTDVNDNPPEFTAMTFYGEVPENRVDIIVANLTVTDKDQPHTPAWNAVYRISGGDPTGRFAIQTDPNSNDGLVTVVKPIDFETNRMFVLTVAAENQVPLAKGIQHPPQSTATVSVTVIDVNENPYFAPNPKIIRQEEGLHAGTMLTTFTAQDPDRYMQQNIRYTKLSDPANWLKIDPVNGQITTIAVLDRESPNVKNNIYNATFLASDNGIPPMSGTGTLQIYLLDINDNAPQVLPQEAETCETPDPNSINITALDYDIDPNAGPFAFDLPLSPVTIKRNWTITRLNGDFAQLNLKIKFLEAGIYEVPIIITDSGNPPKSNISILRVKVCQCDSNGDCTDVDRIVGAGLGTGAIIAILLCIIILLILVLMFVVWMKRRDKERQAKQLLIDPEDDVRDNILKYDEEGGGEEDQDYDLSQLQQPDTVEPDAIKPVGIRRMDERPIHAEPQYPVRSAAPHPGDIGDFINEGLKAADNDPTAPPYDSLLVFDYEGSGSTAGSLSSLNSSSSGGEQDYDYLNDWGPRFKKLADMYGGGDD	–	–	–	–	percentage of EdU-negative (hTERT-HMEC; [1]): 4.75 ± 0.064%; percentage of EdU-negative (hTERT-HMEC; [2]): 9.56 ± 1.9%; percentage of EdU-negative (MCF7; [1]): 27 ± 2.4%; percentage of EdU-negative (MCF7; [2]): 28 ± 1.6%
MCSRGWDSCLALELLLLPLSLLVTSIQGHLVHMTVVSGSNVTLNISESLPENYKQLTWFYTFDQKIVEWDSRKSKYFESKFKGRVRLDPQSGALYISKVQKEDNSTYIMRVLKKTGNEQEWKIKLQVLDPVPKPVIKIEKIEDMDDNCYLKLSCVIPGESVNYTWYGDKRPFPKELQNSVLETTLMPHNYSRCYTCQVSNSVSSKNGTVCLSPPCTLARSFGVEWIASWLVVTVPTILGLLLT	4.77 ± 0.31%	10.71 ± 0.089%	25.8 ± 1.1%	27.8 ± 2%	–
MCSTMSAPTCLAHLPPCFLLLALVLVPSDASGQSSRNDWQVLQPEGPMLVAEGETLLLRCMVVGSCTDGMIKWVKVSTQDQQEIYNFKRGSFPGVMPMIQRTSEPLNCDYSIYIHNVTREHTGTYHCVRFDGLSEHSEMKSDEGTSVLVKGAGDPEPDLWIIQPQELVLGTTGDTVFLNCTVLGDGPPGPIRWFQGAGLSREAIYNFGGISHPKETAVQASNNDFSILLQNVSSEDAGTYYCVKFQRKPNRQYLSGQGTSLKVKAKSTSSKEAEFTSEPATEMSPTGLLVVFAPVVLGLKAITLAALLLALATSRRSPGQEDVKTTGPAGAMNTLAWSKGQE [Q5JXA9]	5.12 ± 0.92%	5.14 ± 0.34%	28 ± 1.8%	26.5 ± 3.1%	–
MCTKTIPVLWGCFLLWNLYVSSSQTIYPGIKARITQRALDYGVQAGMKMIEQMLKEKKLPDLSGSESLEFLKVDYVNYNFSNIKISAFSFPNTSLAFVPGVGIKALTNHGTANISTDWGFESPLFQDTGGADLFLSGVYFTGIIILTRNDFGHPTLKLQDCYAQLSHAHVSFSGELSVLYNSFAEPMEKPILKNLNEMLCPIIASEVKALNANLSTLEVLTKIDNYTLLDYSLISSPEITENYLDLNLKGVFYPLENLTDPPFSPVPFVLPERSNSMLYIGIAEYFFKSASFAHFTAGVFNVTLSTEEISNHFVQNSQGLGNVLSRIAEIYILSQPFMVRIMATEPPIINLQPGNFTLDIPASIMMLTQPKNSTVETIVSMDFVASTSVGLVILGQRLVCSLSLNRFRLALPESNRSNIEVLRFENILSSILHFGVLPLANAKLQQGFPLSNPHKFLFVNSDIEVLEGFLLISTDLKYETSSKQQPSFHVWEGLNLISRQWRGKSAP [Q8NFQ6]	–	–	–	–	percentage of EdU-negative (hTERT-HMEC; [4]): 5.01 ± 0.62%; percentage of EdU-negative (hTERT-HMEC; [5]): 21.7 ± 0.58%; percentage of EdU-negative (MCF7; [4]): 25.1 ± 3.5%; percentage of EdU-negative (MCF7; [5]): 31.5 ± 2.8%
MCVGARRLGRGPCAALLLLGLGLSTVTGLHCVGDTYPSNDRCCHECRPGNGMVSRCSRSQNTVCRPCGPGFYNDVVSSKPCKPCTWCNLRSGSERKQLCTATQDTVCRCRAGTQPLDSYKPGVDCAPCPPGHFSPGDNQACKPWTNCTLAGKHTLQPASNSSDAICEDRDPPATQPQETQGPPARPITVQPTEAWPRTSQGPSTRPVEVPGGRAVAAILGLGLVLGLLGPLAILLALYLLRRDQRLPPDAHKPPGGGSFRTPIQEEQADAHSTLAKI	5.89 ± 1%	6.68 ± 0.33%	24.5 ± 3.6%	26 ± 1.2%	–
MCVTYHNGTGYCKCPEGFLGEYCQHRDPCEKNRCQNGGTCVAQAMLGKATCRCASGFTGEDCQYSTSHPCFVSRPCLNGGTCHMLSRDTYECTCQVGFTGKECQWTDACLSHPCANGSTCTTVANQFSCKCLTGFTGQKCETDVNECDIPGHCQHGGTCLNLPGSYQCQCLQGFTGQYCDSLYVPCAPSPCVNGGTCRQTGDFTFECNCLPETVRRGTELWERDREVWNGKEHDEN [Q7Z3S9]	5.34 ± 0.17%	5.36 ± 0.21%	26 ± 0.95%	24.5 ± 0.49%	–
MDFGLALLLAGLLGLLLGQSLQVKPLQVEPPEPVVAVALGASRQLTCRLACADRGASVQWRGLDTSLGAVQSDTGRSVLTVRNASLSAAGTRVCVGSCGGRTFQHTVQLLVYAFPDQLTVSPAALVPGDPEVACTAHKVTPVDPNALSFSLLVGGQELEGAQALGPEVQEEEEEPQGDEDVLFRVTERWRLPPLGTPVPPALYCQATMRLPGLELSHRQAIPVLHSPTSPEPPDTTSPESPDTTSPESPDTTSQEPPDTTSPEPPDKTSPEPAPQQGSTHTPRSPGSTRTRRPEISQAGPTQGEVIPTGSSKPAGDQLPAALWTSSAVLGLLLLALPTYHLWKRCRHLAEDDTHPPASLRLLPQVSAWAGLRGTGQVGISPS	5.3 ± 0.25%	5.85 ± 0.98%	27.1 ± 4.2%	26.3 ± 1.4%	–
MDFPCLWLGLLLPLVAALDFNYHRQEGMEAFLKTVAQNYSSVTHLHSIGKSVKGRNLWVLVVGRFPKEHRIGIPEFKYVANMHGDETVGRELLLHLIDYLVTSDGKDPEITNLINSTRIHIMPSMNPDGFEAVKKPDCYYSIGRENYNQYDLNRNFPDAFEYNNVSRQPETVAVMKWLKTETFVLSANLHGGALVASYPFDNGVQATGALYSRSLTPDDDVFQYLAHTYASRNPNMKKGDECKNKMNFPNGVTNGYSWYPLQGGMQDYNYIWAQCFEITLELSCCKYPREEKLPSFWNNNKASLIEYIKQVHLGVKGQVFDQNGNPLPNVIVEVQDRKHICPYRTNKYGEYYLLLLPGSYIINVTVPGHDPHITKVIIPEKSQNFSALKKDILLPFQGQLDSIPVSNPSCPMIPLYRNLPDHSAATKPSLFLFLVSLLHIFFK	4.44 ± 0.072%	4.97 ± 0.2%	25.2 ± 4.8%	26.7 ± 1.4%	–
